PMC11581011

Target: recombinantly expressed FphB protein (rFphB), wild type (Staphylococcus aureus) (UniProt Q2FV90)

Which IC50 of inhibition of rFphB (100 nM), cleavage of the 4-MUB substrate (20 μM) does the source give for FphB-OX-5 (peptide) here?
Its IC50 of inhibition of rFphB (100 nM), cleavage of the 4-MUB substrate (20 μM) is 1800 nM.
